{"source": "patent US20210171647A1", "about": "(WUXI BIOLOGICS SHANGHAI, published 2021)", "test_in_all_cases": "ELISA, antibody coated, OX40-ECD.His mutant supernatant; relative to silent alanine substitutions;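 further: captured OX40 mutant protein detected with HRP-labelled anti-His antibody, absorbance read-out, scaled to the mean signal of control mutants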", "key": {"human OX40-ECD.His A150G": {"molecular_target": "T1, human OX40-ECD.His A150G (human, UniProt P43489 29-214)", "T1 construct": "extracellular domain; not shown: C-terminal His-tag", "T1 sequence (looked up)": "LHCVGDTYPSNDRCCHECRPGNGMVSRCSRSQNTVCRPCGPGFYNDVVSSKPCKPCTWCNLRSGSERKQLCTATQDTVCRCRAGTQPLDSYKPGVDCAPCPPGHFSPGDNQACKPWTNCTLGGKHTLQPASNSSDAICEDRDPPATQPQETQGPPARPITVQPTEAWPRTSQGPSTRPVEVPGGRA"}, "human OX40-ECD.His W86A": {"molecular_target": "T2, human OX40-ECD.His W86A (human, UniProt P43489 29-214)", "T2 construct": "extracellular domain; not shown: C-terminal His-tag", "T2 sequence (looked up)": "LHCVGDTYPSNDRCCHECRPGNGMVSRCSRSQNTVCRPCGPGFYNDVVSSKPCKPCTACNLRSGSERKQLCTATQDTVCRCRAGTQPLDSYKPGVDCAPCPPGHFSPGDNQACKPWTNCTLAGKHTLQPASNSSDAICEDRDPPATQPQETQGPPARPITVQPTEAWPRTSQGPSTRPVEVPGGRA"}, "human OX40-ECD.His N138A": {"molecular_target": "T3, human OX40-ECD.His N138A (human, UniProt P43489 29-214)", "T3 construct": "extracellular domain; not shown: C-terminal His-tag", "T3 sequence (looked up)": "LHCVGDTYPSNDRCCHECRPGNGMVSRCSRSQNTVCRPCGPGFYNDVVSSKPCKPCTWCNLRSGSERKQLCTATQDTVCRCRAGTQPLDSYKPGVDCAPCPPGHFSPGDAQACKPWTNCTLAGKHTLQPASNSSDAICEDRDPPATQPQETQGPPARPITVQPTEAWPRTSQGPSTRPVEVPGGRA"}, "human OX40-ECD.His Q97A": {"molecular_target": "T4, human OX40-ECD.His Q97A (human, UniProt P43489 29-214)", "T4 construct": "extracellular domain; not shown: C-terminal His-tag", "T4 sequence (looked up)": "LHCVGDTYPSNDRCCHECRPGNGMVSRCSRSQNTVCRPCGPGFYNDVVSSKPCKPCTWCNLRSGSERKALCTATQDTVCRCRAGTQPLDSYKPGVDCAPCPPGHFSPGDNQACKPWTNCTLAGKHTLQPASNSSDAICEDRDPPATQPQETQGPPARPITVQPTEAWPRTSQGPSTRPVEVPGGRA"}, "human OX40-ECD.His A173G": {"molecular_target": "T5, human OX40-ECD.His A173G (human, UniProt P43489 29-214)", "T5 construct": "extracellular domain; not shown: C-terminal His-tag", "T5 sequence (looked up)": "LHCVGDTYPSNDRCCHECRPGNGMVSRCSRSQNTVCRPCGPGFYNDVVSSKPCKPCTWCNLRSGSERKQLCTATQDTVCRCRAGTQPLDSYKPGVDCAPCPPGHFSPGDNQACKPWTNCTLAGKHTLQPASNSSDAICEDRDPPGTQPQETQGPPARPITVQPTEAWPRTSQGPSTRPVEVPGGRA"}, "human OX40-ECD.His V76A": {"molecular_target": "T6, human OX40-ECD.His V76A (human, UniProt P43489 29-214)", "T6 construct": "extracellular domain; not shown: C-terminal His-tag", "T6 sequence (looked up)": "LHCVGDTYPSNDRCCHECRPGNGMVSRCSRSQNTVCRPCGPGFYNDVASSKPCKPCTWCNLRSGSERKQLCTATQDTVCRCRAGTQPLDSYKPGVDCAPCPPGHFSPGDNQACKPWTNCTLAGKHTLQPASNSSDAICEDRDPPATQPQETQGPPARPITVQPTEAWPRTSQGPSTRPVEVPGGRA"}, "human OX40-ECD.His T100A": {"molecular_target": "T7, human OX40-ECD.His T100A (human, UniProt P43489 29-214)", "T7 construct": "extracellular domain; not shown: C-terminal His-tag", "T7 sequence (looked up)": "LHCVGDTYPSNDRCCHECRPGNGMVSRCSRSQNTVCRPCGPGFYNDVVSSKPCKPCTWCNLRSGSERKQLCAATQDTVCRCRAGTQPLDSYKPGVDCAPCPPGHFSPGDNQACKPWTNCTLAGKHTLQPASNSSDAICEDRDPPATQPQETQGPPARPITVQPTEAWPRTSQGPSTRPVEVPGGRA"}, "human OX40-ECD.His Q60A": {"molecular_target": "T8, human OX40-ECD.His Q60A (human, UniProt P43489 29-214)", "T8 construct": "extracellular domain; not shown: C-terminal His-tag", "T8 sequence (looked up)": "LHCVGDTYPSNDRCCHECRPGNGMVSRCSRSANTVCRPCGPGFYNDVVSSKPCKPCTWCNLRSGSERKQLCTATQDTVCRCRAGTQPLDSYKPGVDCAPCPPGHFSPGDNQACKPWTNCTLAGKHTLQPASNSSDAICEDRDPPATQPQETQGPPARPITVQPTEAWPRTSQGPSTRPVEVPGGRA"}, "human OX40-ECD.His G68A": {"molecular_target": "T9, human OX40-ECD.His G68A (human, UniProt P43489 29-214)", "T9 construct": "extracellular domain; not shown: C-terminal His-tag", "T9 sequence (looked up)": "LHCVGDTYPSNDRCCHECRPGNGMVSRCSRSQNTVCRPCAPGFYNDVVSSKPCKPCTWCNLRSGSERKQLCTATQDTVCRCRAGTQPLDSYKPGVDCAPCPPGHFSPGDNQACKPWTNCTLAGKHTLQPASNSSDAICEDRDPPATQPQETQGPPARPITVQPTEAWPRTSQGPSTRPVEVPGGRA"}, "human OX40-ECD.His E94A": {"molecular_target": "T10, human OX40-ECD.His E94A (human, UniProt P43489 29-214)", "T10 construct": "extracellular domain; not shown: C-terminal His-tag", "T10 sequence (looked up)": "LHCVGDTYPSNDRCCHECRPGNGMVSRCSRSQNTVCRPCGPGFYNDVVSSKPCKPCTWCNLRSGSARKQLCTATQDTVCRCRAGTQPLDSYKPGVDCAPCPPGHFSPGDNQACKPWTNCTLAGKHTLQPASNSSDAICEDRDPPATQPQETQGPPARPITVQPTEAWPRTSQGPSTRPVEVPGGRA"}}}
{"binder": "1.134.9-u1-IgG1L (antibody, V domains shown, fully human IgG1, lambda) VH: QVQLQESGPGLVKPSGTLSLTCAVSGGSISSYNWWSWVRQPPGKGLEWIGEIYHGGNTNYNPSLKSRVTMSVDNSKNQFSLKLSSVTAADTAVYYCARAPGDWGGSPYFDFWGQGTLVTVSS VL: SSELTQDPAVSVALGQTVRITCQGDNLRTYYASWYQQKPGQAPILLIYGRNKRPSGIPDRFSGSSSGNTASLTITGAQAEDEAAYYCNSRDSSGNPVVFGGGTKLTVL", "values": [{"measurement": "Fold Change", "setting": "human OX40-ECD.His A150G", "result": 0.96}, {"measurement": "Fold Change", "setting": "human OX40-ECD.His W86A", "result": 0.842}, {"measurement": "Fold Change", "setting": "human OX40-ECD.His N138A", "result": 0.73}, {"measurement": "Fold Change", "setting": "human OX40-ECD.His Q97A", "result": 0.981}, {"measurement": "Fold Change", "setting": "human OX40-ECD.His A173G", "result": 0.993}, {"measurement": "Fold Change", "setting": "human OX40-ECD.His V76A", "result": 1.02}, {"measurement": "Fold Change", "setting": "human OX40-ECD.His T100A", "result": 0.557}, {"measurement": "Fold Change", "setting": "human OX40-ECD.His Q60A", "result": 0.971}, {"measurement": "Fold Change", "setting": "human OX40-ECD.His G68A", "result": 0.998}, {"measurement": "Fold Change", "setting": "human OX40-ECD.His E94A", "result": 0.716}]}
